Assay results: publication PMC6384901, “Cyclic Peptide-Based Sirtuin Substrates” (Molecules, 2019)

Assays:
Format in all cases: biochemical, human
[1] = substrate: CCCCCCCCCCCCCC(=O)NCCCC[C@@H]1NC(=O)[C@H](CCCNC(=N)N)NC(=O)[C@@H](NC(C)=O)CCCCNC(=O)CCCCCCC(=O)NCCCC[C@@H](C(=O)N[C@H](C(N)=O)[C@@H](C)O)NC1=O; assay: HPLC-based sirtuin deacylation activity assay, SIRT3; details: other: substrate activity with SIRT3, 50 mM Hepes pH 8.0, 3.5 mM β-NAD+, His6-SIRT3 739 nM, 37 °C, 2 min, HPLC 214 nm, Michaelis-Menten fit
Experimental: (§1) The steady-state kinetic parameters (kcat and KM) for the SIRT1/2/3 substrate activities of the purified 5–8 were determined with a HPLC-based sirtuin deacylation activity assay and are recorded in Table 2 and Table 3. As judged by kcat/KM ratios, cyclic peptides 5–8 were all found to be excellent SIRT1 substrates, actually 5, 7, and 8 are all better SIRT1 substrates than the linear hexapeptide-based SIRT1 substrate 3 (depicted in Figure 2) reported in the current literature (kcat/KM = 800 M^−1 s^−1). Cyclic peptides 5–8 were also all found to be better SIRT3 substrates than the linear hexapeptide-based SIRT3 substrate 3 reported in the current literature (kcat/KM = 990 M^−1·s^−1).
(§2) The following materials were obtained from commercial sources for the in vitro sirtuin deacylation activity assay and the pronase digestion assay, and were used as received. Sigma-Aldrich China: the active human recombinant His6-SIRT1, Trizma, Hepes, β-NAD^+, a 1.0 M solution of MgCl2 (molecular-biology grade), the pronase from Streptomyces griseus; Cayman Chemical (Ann Arbor, MI, USA): the active human recombinant GST-SIRT1, the active human recombinant His6-SIRT2, the active human recombinant His6-SIRT3; TCI Shanghai: DL-dithiothreitol (DTT); Alfa Aesar China: NaCl, KCl.
(§3) A sirtuin deacylation assay solution contained the following: 50 mM Hepes (pH 8.0), 137 mM NaCl, 2.7 mM KCl, 1 mM MgCl2, 1 mM DTT, β-NAD^+ (~5.6 × KM: 0.5 mM for the SIRT1 and SIRT2 assays, 3.5 mM for the SIRT3 assay), one test compound (5, 6, 7, or 8) with varied concentrations including 0, and a sirtuin (His6-SIRT1 or GST-SIRT1, 243 nM; His6-SIRT2, 297 nM; or His6-SIRT3, 739 nM). An enzymatic reaction was initiated by the addition of a sirtuin at 37 °C and was incubated at 37 °C for 5 min (for the SIRT1 assay) or 2 min (for the SIRT2 and SIRT3 assays) until quenched with the following stop solution: 100 mM HCl and 0.16 M acetic acid. The quenched assay solutions were directly injected into a C18 column (0.46 × 25 cm, 5 μm), and the column was eluted with a gradient of ddH2O containing 0.05% (v/v) TFA and acetonitrile containing 0.05% (v/v) TFA at 1 mL/min and was monitored at 214 nm. Turnover of the limiting substrate was kept at <10%. Stock solutions of the test compounds were all prepared in ddH2O. The integrated product and substrate HPLC peak areas were then used to determine the initial velocities for the sirtuin-catalyzed deacylation reaction at different concentrations of a test compound (5, 6, 7, or 8). The initial velocity-concentration data were analyzed with KaleidaGraph® (Synergy Software, Reading, PA, USA) and the data were fitted to the Michaelis-Menten equation to obtain the kinetic parameters kcat and KM, as recorded in Table 2 and Table 3.

[2] = substrate: CSCC[C@H](NC(=O)[C@@H]1CCCCNC(=O)CCC(=O)NCCCC[C@H](NC(C)=O)C(=O)N[C@@H](CCCCN)C(=O)N[C@@H](CCCCNC(C)=O)C(=O)N1)C(N)=O; assay: as above; details: other: substrate activity with SIRT3, 50 mM Hepes pH 8.0, 3.5 mM β-NAD+, His6-SIRT3 739 nM, 37 °C, 2 min, HPLC 214 nm, Michaelis-Menten fit
Experimental: as §1, §2, §3

[3] = substrate: CSCC[C@H](NC(=O)[C@@H]1CCCCNC(=O)CNC(=O)CCCCCCC(=O)NCC(=O)NCCCC[C@H](NC(C)=O)C(=O)N[C@@H](CCCCN)C(=O)N[C@@H](CCCCNC(C)=O)C(=O)N1)C(N)=O; assay: as above; details: other: substrate activity with SIRT3, 50 mM Hepes pH 8.0, 3.5 mM β-NAD+, His6-SIRT3 739 nM, 37 °C, 2 min, HPLC 214 nm, Michaelis-Menten fit
Experimental: as §1, §2, §3

[4] = substrate: CCCCCCCCCCCCCC(=O)NCCCC[C@@H]1NC(=O)[C@H](CCCNC(=N)N)NC(=O)[C@@H](NC(C)=O)CCCCNC(=O)CCCCCCC(=O)NCCCC[C@@H](C(=O)N[C@H](C(N)=O)[C@@H](C)O)NC1=O; assay: HPLC-based sirtuin deacylation activity assay, SIRT2; details: other: substrate activity with SIRT2, 50 mM Hepes pH 8.0, 0.5 mM β-NAD+, His6-SIRT2 297 nM, 37 °C, 2 min, HPLC 214 nm, Michaelis-Menten fit
Experimental: as §1, §2, §3

[5] = substrate: CSCC[C@H](NC(=O)[C@@H]1CCCCNC(=O)CCC(=O)NCCCC[C@H](NC(C)=O)C(=O)N[C@@H](CCCCN)C(=O)N[C@@H](CCCCNC(C)=O)C(=O)N1)C(N)=O; assay: as above; details: other: substrate activity with SIRT2, 50 mM Hepes pH 8.0, 0.5 mM β-NAD+, His6-SIRT2 297 nM, 37 °C, 2 min, HPLC 214 nm, Michaelis-Menten fit
Experimental: as §1, §2, §3

[6] = substrate: CSCC[C@H](NC(=O)[C@@H]1CCCCNC(=O)CNC(=O)CCCCCCC(=O)NCC(=O)NCCCC[C@H](NC(C)=O)C(=O)N[C@@H](CCCCN)C(=O)N[C@@H](CCCCNC(C)=O)C(=O)N1)C(N)=O; assay: as above; details: other: substrate activity with SIRT2, 50 mM Hepes pH 8.0, 0.5 mM β-NAD+, His6-SIRT2 297 nM, 37 °C, 2 min, HPLC 214 nm, Michaelis-Menten fit
Experimental: as §1, §2, §3

B1: human recombinant His6-SIRT3 (Homo sapiens) (protein)
chain: MAFWGWRAAAALRLWGRVVERVEAGGGVGPFQACGCRLVLGGRDDVSAGLRGSHGARGEPLDPARPLQRPPRPEVPRAFRRQPRAAAPSFFFSSIKGGRRSISFSVGASSVVGSGGSSDKGKLSLQDVAELIRARACQRVVVMVGAGISTPSGIPDFRSPGSGLYSNLQQYDLPYPEAIFELPFFFHNPKPFFTLAKELYPGNYKPNVTHYFLRLLHDKGLLLRLYTQNIDGLERVSGIPASKLVEAHGTFASATCTVCQRPFPGEDIRADVMADRVPRCPVCTGVVKPDIVFFGEPLPQRFLLHVVDFPMADLLLILGTSLEVEPFASLTEAVRSSVPRLLINRDLVGPLAWHPRSRDVAQLGDVVHGVESLVELLGWTEEMRDLVQRETGKLDGPDK
notes: His6; purchased Cayman Chemical
[1]
  Km: 4.2 ± 0.38 µM
  kcat: 60.0 ± 2.8 10^−3, s^−1
  kcat/Km: (14.3 ± 0.66) × 10^3 M^−1·s^−1
[2]
  Km: 34.9 ± 4.04 µM
  kcat: 155.3 ± 16.6 10^−3, s^−1
  kcat/Km: (4.51 ± 1.0) × 10^3 M^−1·s^−1
[3]
  Km: 4.5 ± 0.9 µM
  kcat: 15.8 ± 1.4 10^−3, s^−1
  kcat/Km: (3.6 ± 0.4) × 10^3 M^−1·s^−1

B2: human recombinant His6-SIRT2 (Homo sapiens) (protein)
chain: MAEPDPSHPLETQAGKVQEAQDSDSDSEGGAAGGEADMDFLRNLFSQTLSLGSQKERLLDELTLEGVARYMQSERCRRVICLVGAGISTSAGIPDFRSPSTGLYDNLEKYHLPYPEAIFEISYFKKHPEPFFALAKELYPGQFKPTICHYFMRLLKDKGLLLRCYTQNIDTLERIAGLEQEDLVEAHGTFYTSHCVSASCRHEYPLSWMKEKIFSEVTPKCEDCQSLVKPDIVFFGESLPARFFSCMQSDFLKVDLLLVMGTSLQVQPFASLISKAPLSTPRLLINKEKAGQSDPFLGMIMGLGGGMDFDSKKAYRDVAWLGECDQGCLALAELLGWKKELEDLVRREHASIDAQSGAGVPNPSTSASPKKSPPPAKDEARTTEREKPQ
notes: as for B1
[4]
  Km: 37.6 ± 14.4 µM
  kcat: 90.9 ± 2.62 10^−3, s^−1
  kcat/Km: (2.6 ± 0.93) × 10^3 M^−1·s^−1
[5]
  Km: 49.7 ± 7.78 µM
  kcat: 138.9 ± 26.7 10^−3, s^−1
  kcat/Km: (2.79 ± 0.1) × 10^3 M^−1·s^−1
[6]
  Km: 11.6 ± 2.2 µM
  kcat: 36.0 ± 4.9 10^−3, s^−1
  kcat/Km: (3.2 ± 1.0) × 10^3 M^−1·s^−1
